Here are results for 2 substances from paper PMC12748987.

For assay [1], the target named is GIRK2 homotetrameric channel (mouse GIRK2A) (mouse).
Assay [2] has the same target. This is another data set of the same source.
The target in assay [3] is GIRK1/2 heterotetrameric channel (GIRK1 with GIRK2) (not stated | mouse) (UniProt P63251).
The target of assay [4] is GIRK1/2HA heterotetrameric channel (GIRK1 with GIRK2HA) (not stated | mouse) (UniProt P63251).
The target in assay [5] is GIRK2HA homotetrameric channel (HA-tagged GIRK2) (mouse).
Assay [6] concerns the target GIRK1/2 heterotetrameric channel (GIRK1 with GIRK2) (not stated | mouse) (UniProt P63251). The source holds these as a separate data set.

Regarding “Gβ·YFPGγ (Gβ1 coexpressed with N-terminally YFP-labeled Gγ2) (from UniProt P62873 1-340; P59768 1-71) (complex)”, the Kd, WTM model fit with fixed µ = 0.3 of single-channel Po against Gβ·YFPGγ surface density in assay [1] was found to be 17.3 µM. This substance also came in with a Kd, WTM model fit with fixed µ = 0.3 of whole-cell currents of GIRK2 or GIRK2HA against Gβ·YFPGγ surface density (mean of experiments) in assay [2] of 31 µM. The substance further came in with a Kd, WTM model fit with fixed µ = 0.44 of whole-cell currents of GIRK2 or GIRK2HA against Gβ·YFPGγ surface density (mean of experiments) in assay [2] of 11 µM. The substance also yielded a Kd, WTM model fit (µ = 0.3) of whole-cell currents against Gβ·YFPGγ surface density, mean of all experiments in assay [3] of 5.5 µM. Besides, the Kd, WTM model fit (µ = 0.3) of whole-cell currents against Gβ·YFPGγ surface density in individual oocytes (Fig. 4b, experiment #4) in assay [4] came out at 9 µM; in assay [5], 45 µM.

Regarding “Gβγ (Gβ1γ2) coexpressed in Xenopus oocytes (from UniProt P62873 1-340; P59768 1-71) (complex)”, in assay [6], the time constant of the single-exponential decay of channel activity (NPo) after excision of the patch into Gβγ-free bath solution with ATP and Na+ is more than 2 min.
